Assay results as given in publication PMC10250241 (Nucleic Acids Research, 2023).

B1: His6-Eco1 (enzyme, S. cerevisiae, UniProt P43605 1-281, looked up)
chain: MKARKSQRKAGSKPNLIQSKLQVNNGSKSNKIVKCDKCEMSYSSTSIEDRAIHEKYHTLQLHGRKWSPNWGSIVYTERNHSRTVHLSRSTGTITPLNSSPLKKSSPSITHQEEKIVYVRPDKSNGEVRAMTEIMTLVNNELNAPHDENVIWNSTTEEKGKAFVYIRNDRAVGIIIIENLYGGNGKTSSRGRWMVYDSRRLVQNVYPDFKIGISRIWVCRTARKLGIATKLIDVARENIVYGEVIPRYQVAWSQPTDSGGKLASKYNGIMHKSGKLLLPVYI
B2: mms22N-3D (S126, T127, S131D) (domain or fragment, S. cerevisiae, UniProt Q06164 1-300, looked up)
chain: MDVDEPNPIVISDSEATDEEISIIYEPEFNENYLWAEENVQEASRSQKIVTERLSLDSTAGESCTPSVVTDTQVTTGLRWSLRKRKAIQKMPYSLERIKHRQLLEGYDISSFDSISNQLTLPKNADDVIHDNDILLTKRTGKPLDEQKDVTIDSIKPENSSVQSQRYDSDEEIPKKRHRTFKDLDQDIVFQSGDSTEDEQDLASTNLQNTQNDEVIFRGRVLNVRTGYRGVLPRVAWEKSLQKQQSSKVTKRKTQLLNHKGVAKRKMNRSAHIEDEEQNLLNDLIAPDDELDIEENAPPD

Legend:
[1] = target: B2; test: SEC
SEC = target: the molecule itself; test: SEC

Row | binding result [1] | Binder | stoichiometry N (SEC)
1 | binds | B1 | –
2 | – | B2 | 2
